Measurements: article PMC5175346

Tests used:
Test in all cases: fluorescence anisotropy
PriA wt = PriA wt (Escherichia coli, UniProt P17888 1-732)
PriA R334A = PriA R334A (Escherichia coli, UniProt P17888 1-732, R334A)
PriA W333A = PriA W333A (Escherichia coli, UniProt P17888 1-732, W333A)
PriA K328A = PriA K328A (Escherichia coli, UniProt P17888 1-732, K328A)
PriA Q329A = PriA Q329A (Escherichia coli, UniProt P17888 1-732, Q329A)
PriA Q330A = PriA Q330A (Escherichia coli, UniProt P17888 1-732, Q330A)
PriA Y335A = PriA Y335A (Escherichia coli, UniProt P17888 1-732, Y335A)

Measured: binding result

B1: two-stranded fork, structure #1 (1b-98/3L-98) (structured_DNA)
DNA 1: GCAAGCCTTCTACAGGTCGACCGTCCATGGCGACTCGAGACCGCAATACGGATAAGGGCTGAGCACGCCGACGAACATTCACCACGCCAGACCACGTA
DNA 2: GACTATCTACGTCCGAGGCTCGCGCCGCAGACTCATTTAGCCCTTATCCGTATTGCGGTCTCGAGTCGCCATGGACGGTCGACCTGTAGAAGGCTTGC
binds: PriA wt | PriA R334A | PriA W333A | PriA K328A | PriA Q329A | PriA Q330A | PriA Y335A
